Drawing on article PMC5562350, this text covers Kd for six molecules.

This test concerns the target Man9-V3 glycopeptide (HIV-1 (strain not stated)).

As for DH270.1 (antibody), the Kd (commonly the free concentration of one partner at which half of the binding sites on the other are occupied at equilibrium, for simple one-to-one binding) came out at 0.331 µM.
The value for DH270.IA4 (antibody) was greater than 10 µM; that for DH270.UCA (antibody) was greater than 10 µM; that for DH270.IA2 (antibody) was greater than 10 µM.
The molecule DH270.IA3 (antibody) showed a Kd greater than 10 µM.

B1: DH270.6 (antibody, V domains shown)
VH: QVQLVQSGAQMKNPGASVKVSCAPSGYTFTDFYIHWLRQAPGQGLQWMGWMNPQTGRTNTARNFQGRVTMTRDTSIGTAYMELRSLTSDDTAIYYCTTGGWISLYYDSSYYPNFDHWGQGTLLTVSS
VL: QSALTQPASVSGSPGQSITISCTGTKYDVGSHDLVSWYQQYPGKVPKYMIYEVNKRPSGVSNRFSGSKSGNTASLTISGLRAEDEADYYCCSFGGSATVVCGGGTKVTVL
Turning to B1, the Kd was found to be 0.188 µM.
